From the DeepSol protein solubility set

experiment: soluble on expression in E. coli; label from the status in PepcDB or PDB records

Row | Sequence | soluble on expression in E. coli
1 | MHHHHHHSSGVDLGTENLYFQSMIAKSFYDLSAINLDGEKVDFNTFRGRAVLIENVASLCGTTTRDFTQLNELQCRFPRRLVVLGFPCNQFGHQENCQNEEILNSLKYVRPGGGYQPTFTLVQKCEVNGQNEHPVFAYLKDKLPYPYDDPFSLMTDPKLIIWSPVRRSDVAWNFEKFLIGPEGEPFRRYSRTFPTINIEPDIKRLLKV | soluble
2 | AHHHHHHGSKVVIVGNGPGGFELAKQLSQTYEVTVIDKEPVPYYSKPMLSHYIAGFIPRNRLFPYSLDWYRKRGIEIRLAEEAKLIDRGRKVVITEKGEVPYDTLVLATGARAREPQIKGKEYLLTLRTIFDADRIKESIENSGEAIIIGGGFIGLELAGNLAEAGYHVKLIHRGAMFLGLDEELSNMIKDMLEETGVKFFLNSELLEANEEGVLTNSGFIEGKVKICAIGIVPNVDLARRSGIHTGRGILIDDNFRTSAKDVYAIGDCAEYSGIIAGTAKAAMEQARVLADILKGEPRRYNFKFRSTVFKFGKLQIAIIGNTKGEGKWIEDNTKVFYENGKIIGAVVFNDIRKATKLEKEILDFYS | soluble
3 | MTHALLIGNPNCGKTTLFNALTNANQRVGNWPGVTVEKKTGEFLLGEHLIEITDLPGVYSLVANAEGISQDEQIAAQSVIDLEYDCIINVIDACHLERHLYLTSQLFELGKPVVVALNMMDIAEHRGISIDTEKLESLLGCSVIPIQAHKNIGIPALQQSLLHCSQKIKPLKLSLSVAAQQILNDLENQLISKGYKNSFAYYFSRRLAEGDTLIGEKAFTESLLIKLQETEQNLDVLLADARYQKIHEIVTLVQKK | soluble
4 | MSLSFKNVNLIYADIATDSAETPETVLTQDDLEKEFEFWEATSLGLFDYMRKSRSKGFVLSLSGGADSSACAIMVAEMIRKGLKELGLTAFLQKSNMETLFDLPALQHLPFEEQAKKITAVFLTTAYQSTRNSGDETYTSAKTLAESIGATFYNWSVDEEIEQYKATIENVIERPLTWEKDDITLQNIQARGRAPIIWMLTNVKQALLITTSNRSEGDVGYATMDGDTAGGIAPIAGVDKDFIRSWLRWAEKNRNQHGLHIVNKLAPTAELRPSEYTQTDERDLMPYDVLARIERKAIKERLSPVQVYTALLTEGPYTKNEFKYWVKKFFRLWSINQWKRERLAPSFHMDDFNIDPRSWYRFPILSSGFAKELNDLDQEGHHHHHH | not soluble
5 | MAHHHHHHMRCCSTALRTGRRGPGGWTEPRLQQATSTDFMRDSTGTGGDNNNNNNNDGGKGPSSALKRHFNVNDFSMIERQQMTLTKLMRITMDATFKPKDPDSRTYGGDGATQRAALREELKTMDSRIVPFAHEEILNDYLKNIVELSGPSGQRYDREMLRGRLVGLLFFTETDRSLAFMRLLREFHQRHRRDFVVVAISLGGKEMMDITRQHGFYHCSHRDGATWVQRDTGLMVRPWTPLPRLIVVNGTSGEEITSSGVTAVKAHPNTCFEKWKNGEEGCDWWDYIKTFYM | soluble
6 | MAELWEIVSFLDEYLKISEYPDKSSNGLQVEGKEEVNTIAFAVDACLDTIVKARAFNADMLIVHHGLIWGGVKYVKGLFAKRVKELLKSNMNLYAAHLPLDAHPEVGNNAQLLKLLGLEPKEKFGEYHGVMIGYIGEFEEEKPLPLIAQMLAEKLPVDYVKSYEFGVQEIKRVGVVSGGGGFAVEEASEKGVDLFITGEFTHEDYRAAEDLRLSVIAAGHYATETLGVKALMPILREKFGVKTIFIDSPTGLLEHHHHHH | soluble
7 | MRVEIIFLGCGGGRWATITQKKATGGFRIHTNELRMHVDPGPGAIVRLNELKISPWRTNALFISHCHPDHYTDGEIIVEAITQGMTKKRGVFLGSLSVVEGFGEYEYVVSKYHQSKLEEVRVLYPGDSAELYDTTIKATHTKHGDPFGIGFRLSTIYGDIGYTSDTEFIPQLIEDFDGVRILIANIVRKKNERIKGHLCSNDAIDLINSMNKKPELLIMNHMGVKMTNPQIEAEYISQNTGIEVIPARLGLKVELLNGKYKYQLIKLEHHHHHH | soluble
8 | SFSSLPLTGENPGAWALVRDNSAKGITAGSGSQQTTYDPTRTEAALTASTTFALRRYDLAGRALYDLDFSKLNPQTPTRDQTGQITFNPFGGFGLSGAAPQQWNEVKNKVPVEVAQDPSNPYRFAVLLVPRSVVYYEQLQRGLGLPQQRTESGQNTSTTGAMFGLKVKNAEADTAKSNEKLQGAEATGSSTTSGSGQSTQRGGSSGDTKVKALKIEVKKKSDSEDNGQLQLEKNDLANAPIKRSEESGQSVQLKADDFGTALSSSGSGGNSNPGSPTPWRPW | soluble
9 | MNSSPKMKHDVFISFRSKDTRDNFVSHLCGCLRRKRIKTFLYDELPADERYEESLKAIEVSKISVIVFSENFGDSRWCLDEVVAILKCKEKFGQIVIPVLYHVDPLDIENQTGSFGDAFAKRRDKAEQLQEWKDSFTEAINLPGWSTAYLRYNPKLILSIKVTVVSELQDVLISGINIMITAFSTCK | soluble
10 | MAHHHHHHMTSGYSSYAGASGSGHERFTRILVVGEASVGKTLLIRRLCDHIFGDTSITSTDEGSAPESPYQSQSAVADDDLGPEWGPTVGIAVDALKRSTTVLEDTVTMPNLAMSTPYDTAAVARYTAPSCSLHSGENGNYPHCSVYDTPCSTSGYGRSNSVLQYRGQGFVGSNTSFALLHQLTSASPPRRQTVLQTVEFHELGGTHGYRDVARLLLRNIHYDGVMFVYHRRSLTSTLYLKEWYRWIRSVFSASPDVGSHYGAEAKKPVKCSKKMPRFMLVGTQLPGDELPAAAAGLTKAAAETLHMASGAISDETLLDGNLEVKLRALQSPQTLTQRRGVRHALSKVFRRLAWPYHMWWCVSHPFFLLSKQYQEELGPRSRLGACGSRVVERFVWLFYQAEQALLYVMAVILFGPYQEAVVLGHSRPKQTLEEMLKDELCVSQAHVCRLESNISLQSSLDDMVAFFDILLRQDAPDEGR | not soluble
11 | MSLDNGIELPGVSFWGGNILQDTDGKYHLFVCGWPEDSPKGHMFWSNSTVFHAVSDRLEGPFKIQNSVGKGHNPEAFQLKDGRVVVYVIDGYYIADGVDSKVWTYGKFSFDSRDRKIIEGLSNLTFARRQDDSYLMVCRGGGVWISKDGLSPYMQLTDKRVYPDVEGRFEDPVVWRDELQYHLIVNDWLGRIAFYQRSKDGVHWVTEQGEAYVPGVSFHKDGAVEHWFKYERPKVFQDEKGRAVQMNFAVIDTIKWNDLPNEGHHHHHH | not soluble
12 | MSDNSTGTTKSRSNVDDVQAHYDLSDAFFALFQDPTRTYSCAYFERDDMTLHEAQVAKLDLTLGKLGLEPGMTLLDVGCGWGSVMKRAVERYDVNVVGLTLSKNQHAYCQQVLDKVDTNRSHRVLLSDWANFSEPVDRIVTIEAIEHFGFERYDDFFKFAYNAMPADGVMLLHSITGLHVKQVIERGIPLTMEMAKFIRFIVTDIFPGGRLPTIETIEEHVTKAGFTITDIQSLQPHFARTLDLWAEALQAHKDEAIEIQSAEVYERYMKYLTGCAKAFRMGYIDCNQFTLAK | soluble
13 | MFTAGSATVTPKLNGVAGPAFQVIKDSLTLGLNALTLTDVTKNAAYGVEIESLVLEINAPAA | soluble
14 | MGSDKIHHHHHHMLKCSICINDERITRILIVDGRPICKECKVFLEHPPDKEKIKKELEEILSKVDKAIVAYSGGKDSIVALYLAKEKYSIDVEAVMVDHGFIAPQAIKNAKNVAKYLDVPLTIIKRDYSDIFREALLKAKSPCRKCSRRTMEILRKYALKKGYRYMITGHELPFGHHPYRLMSGGIIQVRILSLMSEEERMKILKKLPVELPELPGYTSNCLILGPALQRFWERHGYSFEHRRIAALVRYGLLNKEKALKKVQKPEVPQWQWELVKKKLKLEDGF | not soluble
15 | MARTVDLELEAQIDILRDNNKKYENILKLAQTLSTQLFQMVHTQKQLGDAFADLSLKSLELHEKFGYNADTQKLLAKNGETLLGAINFFIASVNTLVNKTIEDTLMTVKQYENARVEYDAYRTDLEELNLGPRDANTLPKIEQSQHLFQIHKEKYDKMRSDVSVKLKFLEENKVKVLRNQLVLFHSAVAAYFAGNQKQLELTLKQFHVRLKTPGVDAPSWLEEQ | soluble
16 | MTARDYIWNADGEVGGINDKLRGCLVFSYDRSGWLTSRTGQMYDHDHYYYDKAGNLLTDEYQGAVMDNRLPGYGRDRYRYNEWGELTERRDQQLEWNAQGQLTRVISSNSETRYQYDALGRRISKATSNLHTDRGERSRTTFVWEGFRLLQETTWQGKRTYLYDAEQPYTPVAAITGRGESQKIWYYHTDLTGTVHEVTAPDGTLVWAGYQAGFGENRGDISNSGAYFEQPQRLPGQYFDEETGLHYNLFRYYAPECGRFVSQDPIGLNGGLNLYAYAPNPLGWIDPLGLNSLGIDSNNIFRGDGNYKGGGIGQPKSGTISAQDIIDHLLEHHHHHH | not soluble
17 | GPLGSCDSGTGLTGNYSQDTLTVIATLREAIDLPQDAPNRQEVQDTARGQINDYISRYRRKGDAGGLKSFTTMQTALNSLAGYYTSYGARPIPEKLKKRLQLEFTQAERSIERGV | soluble
18 | SSSESEKDKERLIQAAKLFFFHIRDLVSFINRFVELFNLTMKTQILPMNLNEESCIKDFFEQMIRNFKEMQLMVDGKHKQMQKEPLCSKVLTAMTSAVEKCATIAPHHTAEDMLRNIQTSGAALVLKTSHVLVNLETSLSLLMQFPIMGLRLSDLYREETKEQSDATSDATTSEKNKSPECPKATTEETLRKLQDVLSPENAHTPVEAAADELEQFVKSMEITLQVLQKSIKTMEGDIFVLTQVQGK | soluble
19 | MDDKKDNRHLSKPAYREECTGDTERSTTAYMDILEDVSTGSTSKLPLEAKFVKISNNISEKENLPKEKEIGGVKGLEPTRYGDWQHKGKVTDF | soluble
20 | MGISRDSWHKRYKTGATQPVPHKKRKFELGRPAANTKIGAHRVRLVRTRGGNEKYRALRLDSGNFSWASEQTTRKTRIVDTMYNATNNELVRTKTLVKGAIISVDAAPFRQWYEAHYALPLARKKNAKLSEEDNAILNKKRSHHTMKKYTERQKTAAVDALLIEQFNTGRLLARISSSPGQVGQANGYILEGKELDFYLRKIRAKKAK | not soluble
21 | MSDSTQMEANAAINEIKKRTRKLDQSLQMRFCADQFFIGNHCTKLASGKSIIISQNSKNRICLRFFMAADPLVGYTGRDFGIAFNQIDHISLKDEQQENPAVLICTLNLSSYTKMCKLQTGLKDVVEKPFLYNKSLARNLTFILKPWNDDPDTFVKISYNDEHREYVHSYDYDVAKSLMFKEVQAVWEQSLKEQLQRRHQTGRVYLTSQLSEMTPREWVQFLADQKLSKIVCHNGSIQYARVEDNPHGRKHTAVATNGFDHRGTRVLNSFGKAHASLATQEKSYAKKRKLTEQSLKLIYRNDRSVWLEGSCAKNLKMPKINSEPNMGEFMGWPDMDNAMTHPTSNFENEDVMKSTKQPNDFVSFEQLQAPPPVLQRQNGAIYSTQSVAFTHISGNDGVEDLTEKISHLGEEAYNIDMANALHAFSDNWHYEIHPNTVHNASFEQLHIGDGNSSIGTIGFNPLEPYPQSSFPQSNNWQQAHGDFTFPQVSFPNTQQGSCLPSTPTAALPPTRPVVEKIPPDTQLFTFPPSGSCTTGMDPVVLLVKDIKTLDRKEFLNDSVMAFMLNYIAFMLSSELMKSVHMCNTFLFVNLTRLLPPLCFSKRRPIEPEHIKIVKDNCPRVLRWTRKFDVLAKDYIIIPINEDLHWLVIAVINPSGAIVDMSNEEASRAAPKCYIVFFDPLSGLDPSKKNHMCHCIKIYLAQLYENTKAPGMKFASKNPTIYDEERVVVTRAENTPIQDNFYDCGLYVLHFIEGLFCYPNRPVNVNDFPNFDWSKFFPEANKMCDLMRDKVYNLILQQADKPARSRLAKFERENKCGLSREGALRKARRHSAVNERRTKRHRDYYARHYSLSPPHRNVMNDDPTFMNPRGLAEMPITRLVRRLRIPEDNFPIAY | not soluble
